Molecular target: T1, RNA polymerase II CTD tetraheptad CTD (UniProt P24928, CTD Ser5 phosphorylation)
T1 chain: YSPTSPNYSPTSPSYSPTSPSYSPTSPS
Assay: guanylyltransferase stimulation assay

B1: Mce (protein)
chain: not shown
  Kd: 1500 nM
